Where a chain is given by its changes, count along the chain named. Names and notes keep the numbering of the source.
What was measured:
[1] = biological target: T1, SPP–myc (signal peptide peptidase, myc-tagged) (human), Q8TCT9; test: SDS/PAGE; conditions: remark: other sources report otherwise
T1 chain: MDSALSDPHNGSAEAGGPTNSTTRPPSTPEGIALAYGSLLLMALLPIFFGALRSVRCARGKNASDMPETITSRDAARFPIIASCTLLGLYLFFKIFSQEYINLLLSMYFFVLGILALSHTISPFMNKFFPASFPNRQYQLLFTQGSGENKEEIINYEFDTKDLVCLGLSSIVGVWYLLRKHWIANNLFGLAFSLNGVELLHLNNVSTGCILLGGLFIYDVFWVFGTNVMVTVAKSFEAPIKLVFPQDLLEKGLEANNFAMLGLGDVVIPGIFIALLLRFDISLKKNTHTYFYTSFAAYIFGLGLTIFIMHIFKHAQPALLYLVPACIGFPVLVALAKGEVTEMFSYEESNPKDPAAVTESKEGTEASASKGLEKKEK

native gel or EMSA = biological target: the molecule itself; test: native gel or EMSA

B1: SPP–myc (signal peptide peptidase, myc-tagged), Q8TCT9 1-377 (enzyme)
chain: T1 chain
stoichiometry N [1]: 2

B2: SPP^D/A–myc (SPP-D265A, catalytically inactive, myc-tagged) (enzyme)
chain: T1 chain with D265A
stoichiometry N (native gel or EMSA): 2

Source: paper PMC2860808 (Biochemical Journal, 2010)
